Assay results reported in patent publication US20080152587A1 (Amgen, published 2008).
Substitutions are numbered along the chain they refer to.

T1: mouse uPAR on the surface of NCTC L929 cells (mouse, UniProt P35456 24-298)
T1 construct: whole, on cells; also called cell surface mouse uPAR
T1 sequence (looked up): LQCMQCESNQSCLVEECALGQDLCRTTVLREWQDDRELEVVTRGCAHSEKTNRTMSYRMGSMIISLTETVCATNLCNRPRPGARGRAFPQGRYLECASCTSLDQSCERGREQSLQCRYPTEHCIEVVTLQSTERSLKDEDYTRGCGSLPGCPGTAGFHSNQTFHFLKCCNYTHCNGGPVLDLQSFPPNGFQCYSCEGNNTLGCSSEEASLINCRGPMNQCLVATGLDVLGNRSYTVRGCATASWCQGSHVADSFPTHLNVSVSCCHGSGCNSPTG

T2: murine uPAR (form not stated) (mouse, UniProt P35456 24-297, limits assumed)
T2 construct: also called mouse uPAR
T2 sequence (looked up): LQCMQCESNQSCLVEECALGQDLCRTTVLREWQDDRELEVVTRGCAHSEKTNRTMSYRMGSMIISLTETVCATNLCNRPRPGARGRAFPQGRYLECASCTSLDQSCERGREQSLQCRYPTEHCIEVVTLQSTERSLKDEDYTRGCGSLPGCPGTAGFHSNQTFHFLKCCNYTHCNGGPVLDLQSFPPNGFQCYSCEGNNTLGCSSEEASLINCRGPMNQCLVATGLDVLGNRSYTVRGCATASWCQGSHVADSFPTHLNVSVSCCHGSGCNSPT

T3: human Ly6e with a myc tag, expressed in HEK293T cells (human, UniProt Q16553 21-101)
T3 construct: whole, on cells; not shown: myc tag fused on the molecule
T3 sequence (looked up): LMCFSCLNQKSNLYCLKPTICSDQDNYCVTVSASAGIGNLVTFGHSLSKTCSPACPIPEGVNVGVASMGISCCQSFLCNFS

B1: anti-uPAR monoclonal antibody 4.13.1 (antibody, V domains shown)
VH: EVQLLESGGGLVQPGGSLRLSCAASGFTFSSYAMSWVRQAPGKGLEWVLGISGSGGSTYYADSVKGRFTISRDNSKNTLYLQMNSLRAEDTAVYYCAKDGYGDYVGWYFDLWGRGTLVTVSS
VL: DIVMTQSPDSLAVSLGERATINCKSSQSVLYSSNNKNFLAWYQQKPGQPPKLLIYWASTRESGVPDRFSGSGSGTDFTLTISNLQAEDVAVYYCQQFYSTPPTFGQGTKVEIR
notes: also called 4.13.2
B2: anti-uPAR monoclonal antibody 3.8.3 (antibody, V domains shown)
VH: EVQLVESGGGLVQPGGSLRLSCAASGFTFSSYWMSWVRQAPGKGLEWVANIKQHGSEKYYVDSVKGRFTISRDNAKNSLYLQMNSLRAEDTAVYYCAREEAYYYDNSGYYWYFDLWARGTLVTVSS
VL: DIQMTQSPSSVSASIGDRVTITCRASQGISSWLAWYQQKPGKTPKLLIYAASSLQSGVPSRFSGSGSGTDFTLTISSLQPEDFATYYCQQADSFPWTFGQGTKVEIK
B3: anti-uPAR monoclonal antibody 1.113.2 (antibody, V domains shown)
VH: QVQLVESGGGVVQPGRSLRLSCAASGFTFSSYGMHWVRQAPGKGLEWVAVIWYDGSNKYYADSVKGRFTISRDNSKNTLYLQMNSLRAEDTAVYYCARDLAALYYYYGMHVWGQGTTVTVSS
VL: EIVMTQSPATLSVSPGERATLSCRASQSFSSNLAWYQQKPGQAPRLLIYGASTRATGIPARFSGSGSGTEFTLTISSLQSEDFAVYYCQQNNNWPRTFGQGTKVEIK
B4: anti-uPAR monoclonal antibody 1.41.1 (antibody, V domains shown)
VH: QVQLVESGGGVVQPGRSLRLSCAAPGFTFSSYGMHWVRQAPGKGLEWVAVIWYDGSQKYYADSVKGRFTISRDNSKNTLYLQMNSLRAEDTAVYYCARGMTYYYYYGMDVWGQGTTVTVSS
VL: B3 VL with T10I, F29V, N32K, A34D, N91Y
B5: anti-uPAR monoclonal antibody 1.4.2 (antibody, V domains shown)
VH: EVQLVESGGGLVQPGGSLRLSCAASGFTFSSYDMHWVRQATGKGLEWVSAIGTAGDTYYPGSVKGRFTISRENAKNSLYLQMNSLRAGDTAVYYCAREGDYSNYFTMVRGVTYGMDVWGQGTTVTVSS
VL: DIQLTQSPSSLCASVGDRITITCRASQGISKYLAWFQQKPGKAPKSLIYGASSLQSGVPAKFSGSGSGTDFTLTISSLQPEDFATYYCQQYNSYPLTFGGGTKVEIK
B6: anti-uPAR monoclonal antibody 1.61.1 (antibody, V domains shown)
VH: B5 VH with M107R
VL: B5 VL with L4M, C12S, I19V, A60S
B7: anti-uPAR monoclonal antibody 4.50.1 (antibody, V domains shown)
VH: QVQLVESGGGVVQPGRSLRLSCAASGFTFSSYGMHWVRQAPGKGLEWVAVIWYDGSNKDYADSVKGRFTISRDNSKNTLYLQMNSLRAEDTAVYYCARDMIVVVITYAFDIWGQGTMVTVSS
VL: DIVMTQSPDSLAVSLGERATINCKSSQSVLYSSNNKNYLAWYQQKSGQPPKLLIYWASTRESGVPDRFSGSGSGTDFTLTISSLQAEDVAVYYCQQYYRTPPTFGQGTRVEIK
notes: also called 4.50.2
B8: anti-uPAR monoclonal antibody 1.100.1 (antibody, V domains shown)
VH: EVQLVESGGGLLQPGGSLRLSCAASGFTVRNNYMNWVRQAPGKGLEWVSVIYTGGSTYYADSVKGRFTISRDNSKNTLYLQMNSLRAEDTAVYYCAREGKLAGMDVWGQGTTVTVSS
VL: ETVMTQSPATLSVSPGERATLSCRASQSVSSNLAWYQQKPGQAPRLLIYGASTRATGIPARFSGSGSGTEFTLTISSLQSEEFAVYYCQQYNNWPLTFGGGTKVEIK

Legend:
[1] = target: T1, mouse uPAR on the surface of NCTC L929 …; experiment: FACS, NCTC L929 mouse cells
Method: (§1) To make the mouse cross-reactivity results conclusive, direct binding of the mAbs to cell-bound mouse uPAR was measured using FACS analysis. The mouse cell line derived from the connective tissue, NCTC L929, was employed for FACS analysis. The harvested cells were resuspended at 50,000 cells/well using FACS buffer into a V-bottom plate which was put on ice. […] After washing, Cy5-labeled goat anti-human IgG Fc at 5 μg/ml and 7AAD at 5 μg/ml was added. The mixtures were incubated for 15 min on ice, washed and resuspended in cold FACS buffer for FACS analysis.

[2] = target: T4, human urokinase-type plasminogen activator receptor (uPAR, CD87), cell-bound (human, UniProt Q03405 23-305); experiment: FACS, B300.19 cells expressing human uPAR, anti-human gamma Cy5
T4 construct: whole, on cells; On B300.19 or L929 transfectants (full length cDNA), or native on U937 and PC-3 cells
T4 sequence (Q03405 23-305): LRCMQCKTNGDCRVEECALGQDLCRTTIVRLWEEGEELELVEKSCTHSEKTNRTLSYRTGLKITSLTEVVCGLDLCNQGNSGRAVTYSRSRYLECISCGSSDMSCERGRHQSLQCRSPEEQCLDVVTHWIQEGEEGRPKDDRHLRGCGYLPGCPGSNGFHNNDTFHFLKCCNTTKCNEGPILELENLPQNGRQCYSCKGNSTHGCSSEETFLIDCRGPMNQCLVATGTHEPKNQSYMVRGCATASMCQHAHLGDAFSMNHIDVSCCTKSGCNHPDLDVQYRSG

[3] = target: T4, human urokinase-type plasminogen …; experiment: FACS competition, FITC-tc-uPA on L929 cells expressing human uPAR, supernatant 1:2
From the text: (§2) Briefly, murine fibroblast L929 cells (ATCC) were transfected to express human uPAR.

[4] = target: T2, murine uPAR (form not stated); experiment: summary column Murine X-reactivity
[5] = target: T4, human urokinase-type plasminogen …; experiment: cell-based or functional assay
[6] = target: T3, human Ly6e with a myc tag, expressed in …; experiment: FACS, HEK293T cells expressing Ly6e, supernatant 1:2
Method: The reactivity of the antibodies to the HEK293T transfected to express Ly6e was determined by FACS analysis, using 1:2 hybridoma supernatants, and probed with goat anti-human γ chain conjugated with Cy5 (2.5 mg/ml, Jackson Immune Research). Binding of an anti-myc antibody (10 μg/ml, Invitrogen) to the transfectants served as a positive control, and binding of this antibody to the (Ly6e negative) parental cells served as the negative control.

[7] = target: T4, human urokinase-type plasminogen …; experiment: FACS competition with FITC-tc-uPA, line material
From the text: as §2

[8] = target: T1, mouse uPAR on the surface of NCTC L929 …; experiment: FACS, NCTC L929 mouse cells, mAb 6.25 µg/ml
Method: as §1

[9] = target: T5, soluble recombinant human uPAR/His6 (R&D Systems, Cat. # 807-UK-100) (human, UniProt Q03405 23-303); experiment: low resolution Biacore, mAb captured by goat anti-human, hu-uPAR 312 nM;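 further: surface plasmon resonance on a CM5 chip with goat anti-human antibody surface made by amine coupling, each mAb from supernatant captured per flow cell, kinetics fitted including mass transport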
T5 construct: range 1-303; Bought protein; also called soluble uPAR; hu-uPAR
T5 sequence (Q03405 other isoform, or with tags, fused parts or gaps limits assumed, form in doubt): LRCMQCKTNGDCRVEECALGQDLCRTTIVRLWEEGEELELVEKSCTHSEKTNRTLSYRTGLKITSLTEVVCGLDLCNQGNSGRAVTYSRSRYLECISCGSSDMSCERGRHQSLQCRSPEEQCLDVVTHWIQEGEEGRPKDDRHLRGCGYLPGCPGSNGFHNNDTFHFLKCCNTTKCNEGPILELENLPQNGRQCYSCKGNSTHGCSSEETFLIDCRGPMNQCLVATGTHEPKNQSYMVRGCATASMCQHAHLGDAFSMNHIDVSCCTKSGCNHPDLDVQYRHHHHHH
Method: (§3) A high-density goat anti-human antibody surface over a CM5 Biacore™ chip was prepared using routine amine coupling. […] Each mAb was captured on a separate flow cell using a 30-second contact time at 10 μL/min followed by a 5-minute wash at a 100 μL/min flow rate for stabilization of the mAb baseline. […] All antigen samples were prepared in the running buffer.
A mass transport coefficient was used in fitting the data.

[10] = target: T5, soluble recombinant human uPAR/His6 …; experiment: limited antigen ELISA, uPAR coat 80 ng/mL, sample 1:25
Method: (§4) ELISA plates were coated with a lower amount ofuPAR in comparison with the High Antigen Quantitation assay described below (320, 160, 80, 40 and 20 ng/mL). Samples containing one concentration of antibody (Ab) (1:25 dilution) were incubated overnight to allow Ab binding to approach equilibrium.

[11] = target: T5, soluble recombinant human uPAR/His6 …; experiment: low resolution Biacore
Method: as §3

[12] = target: T5, soluble recombinant human uPAR/His6 …; experiment: limited antigen ELISA, uPAR coat 20 ng/mL, sample 1:25
Method: as §4

[13] = target: T4, human urokinase-type plasminogen …; experiment: FACS, U937 cells, mAb 5 µg/ml on ice, alexa647 goat anti-human F(ab), not stripped
Method: A cell suspension containing 100,000 cells was pipetted into each well of a V-bottom plates in duplicate. Two V-bottom plates were prepared, one to be kept at 37° C. during internalization with antibody complex, and the other to be incubated at 4° C. Each of the eight uPAR mAbs was incubated with U937 cells at 5 μg/ml on ice for 15 min. Incubation on ice was necessary to prevent internalization of the primary mAbs. The cells were then washed with cold FACS buffer. Cells were subsequently incubated on ice in 100 μl of 5 μg/ml alexa647-labelled goat anti-humanF(ab) (Invitrogen catalogue number A21249) in cold FACS buffer for 15 min. This allowed the goat FAB bind to the bound uPAR mAbs without permitting any internalization. After a 15 minute incubation on ice, one plate was kept on ice, while the other plate was incubated at 37° C. for 1 hour.
Following the 1 hr incubation with the mAb-FAB complex, the cells were washed twice with cold 5% FACS buffer, and 200 μl of Tris(2-carboxyethyl)phosphine HCl (TCEP) was added to each well as a stripping agent. The plates were both incubated with TCEP on ice for 1 hour, followed by washing and resuspending with FACS buffer. 4 μl of 7-Amino-Actinomycin D (7AAD) was added to each well, followed by 10 min incubation on ice before FACS analysis was conducted.

[14] = target: T4, human urokinase-type plasminogen …; experiment: cell-based or functional assay; remark: listed apart in the source
[15] = target: T6, cynomolgus monkey uPAR, cell-bound (cynomolgus monkey, UniProt Q9GK78 23-305); experiment: FACS, GeoMean; cynomolgus uPAR expressed on 293T cells; antibody concentration not given
T6 construct: whole, on cells; also called cyno-uPAR
T6 sequence (Q9GK78 23-305): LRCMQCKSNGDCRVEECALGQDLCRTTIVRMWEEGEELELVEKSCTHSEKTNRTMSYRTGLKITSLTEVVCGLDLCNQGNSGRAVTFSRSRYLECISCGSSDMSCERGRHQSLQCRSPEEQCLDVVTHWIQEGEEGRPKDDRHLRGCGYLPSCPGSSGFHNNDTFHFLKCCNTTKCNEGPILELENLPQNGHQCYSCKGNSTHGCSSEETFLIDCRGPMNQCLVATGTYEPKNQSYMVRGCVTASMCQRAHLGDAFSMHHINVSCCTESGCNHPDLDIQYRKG

Binder	binding result [1]	gCy5 Geo Mean Pos Cells [2]	uPA/uPAR binding Inhibition % [3]	binding result [4]	Plasminogen activation inhibition (IC50, ug/ml) [5]	binding result [6]	Human uPAR/uPA binding inhibition (%, line material) [7]	X Geo Mean [8]	Kd [9]	koff [9]	kon [9]	LA at 80 ng/ml [10]	Kd [11]	LA at 20 ng/ml [12]	geo mean cold - TCEP [13]	inhibition of plasminogen activation on U937 cells [14]	binding result [15]
B1	no binding (tested: 6.25 µg/ml)	28.2	78%	no binding	0.077 µg/mL	no binding (tested: GeoMean ratio 1.95)	78%	11.2	12.6 nM	0.0012 s⁻¹	95000 M⁻¹ s⁻¹	0.24	12.6 nM	0.09	37.4	> 90%	
B2		451	70%	no binding	0.328 µg/mL	no binding (tested: GeoMean ratio 1.95)	70%		3.1 nM	6.8e-05 s⁻¹	22000 M⁻¹ s⁻¹	2.57	3.1 nM	0.67			
B3	no binding (tested: 6.25 µg/ml)	511	75%	no binding	0.775 µg/mL	no binding (tested: GeoMean ratio 1.95)	75%	10.2	4.6 nM	0.00013 s⁻¹	28000 M⁻¹ s⁻¹	1.8	4.6 nM	0.53			binds
B4	no binding (tested: 6.25 µg/ml)	422	74%	no binding	0.181 µg/mL	no binding (tested: GeoMean ratio 1.95)	74%	9.59	3.9 nM	0.00013 s⁻¹	33000 M⁻¹ s⁻¹	1.48	3.9 nM	0.27			binds
B5	no binding (tested: 6.25 µg/ml)	419	69%	no binding	0.075 µg/mL	no binding (tested: GeoMean ratio 1.95)	69%	12.4	8.7 nM	0.00096 s⁻¹	110000 M⁻¹ s⁻¹	0.66	8.7 nM	0.16			binds
B6	no binding (tested: 6.25 µg/ml)	559	69%	no binding	0.119 µg/mL	no binding (tested: GeoMean ratio 1.95)	69%	9.7	2.7 nM	0.00025 s⁻¹	94000 M⁻¹ s⁻¹	1.99	2.7 nM	0.27			binds
B7	no binding (tested: 6.25 µg/ml)	402	67%	no binding	0.104 µg/mL	binds	67%	8.92	2.2 nM	0.00026 s⁻¹	120000 M⁻¹ s⁻¹	0.64	2.2 nM	0.21	42.1	> 90%	binds
B8	no binding (tested: 6.25 µg/ml)	521	78%	no binding	0.061 µg/mL	no binding (tested: GeoMean ratio 1.95)	78%	9.89	2.3 nM	0.00017 s⁻¹	75000 M⁻¹ s⁻¹	2.15	2.3 nM	0.27			binds
